The source of these data is US20110117021A1.

The target of the assay is human VAP-1 expressed on the surface of transfected Ax rat endothelial cells (human) (UniProt Q16853). In words: cell-based or functional assay.
human VAP-1 expressed on the surface of transfected Ax rat endothelial cells (human), sequence (Q16853 whole entry): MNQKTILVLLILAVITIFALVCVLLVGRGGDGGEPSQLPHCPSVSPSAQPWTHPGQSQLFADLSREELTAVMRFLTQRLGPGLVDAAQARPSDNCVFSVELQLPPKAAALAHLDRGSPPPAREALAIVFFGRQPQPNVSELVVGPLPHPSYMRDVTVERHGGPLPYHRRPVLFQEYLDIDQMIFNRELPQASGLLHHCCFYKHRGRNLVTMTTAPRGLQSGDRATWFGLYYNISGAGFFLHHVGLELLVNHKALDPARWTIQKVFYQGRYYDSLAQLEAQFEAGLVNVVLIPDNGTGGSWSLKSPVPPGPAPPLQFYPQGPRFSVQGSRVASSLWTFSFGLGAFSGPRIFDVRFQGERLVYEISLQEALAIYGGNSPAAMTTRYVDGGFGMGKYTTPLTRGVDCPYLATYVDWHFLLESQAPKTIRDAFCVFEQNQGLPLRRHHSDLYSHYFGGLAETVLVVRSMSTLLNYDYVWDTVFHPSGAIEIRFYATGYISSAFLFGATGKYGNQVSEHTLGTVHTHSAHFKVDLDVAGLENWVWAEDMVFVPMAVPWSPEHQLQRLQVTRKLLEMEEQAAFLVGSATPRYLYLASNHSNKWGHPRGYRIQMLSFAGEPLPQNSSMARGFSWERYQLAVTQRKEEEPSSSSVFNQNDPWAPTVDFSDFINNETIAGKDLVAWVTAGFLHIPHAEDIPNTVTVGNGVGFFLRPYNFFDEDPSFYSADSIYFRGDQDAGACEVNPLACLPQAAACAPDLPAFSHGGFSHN

Regarding “BTT-1002, chimeric anti-VAP-1 monoclonal antibody”, the migration of human PBMC through a monolayer of Ax endothelial cells expressing human VAP-1 (in vitro transmigration assay) came to 1.
